Source: the supplement of paper PMC10567573

B1: HNF4A (parent)
chain: RFSRQCVVDKDKRNQCRYCRLKKC

Variants of: B1
Assay: protein stability index of a GFP-peptide fusion (GPS, HEK-293T) (PSI 1-6); higher = more stable
Details: c terminus: a fixed tail appended
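Further: lentivirally expressed fusions sorted by FACS into six bins by GFP to DsRed ratio, PSI derived from sequencing read proportions per bin multiplied by bin number.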

Variant | protein stability index
RFSRQEVVDKDKRNQCRYCRLKKC [C6E] | 2.82
RFSRQFVVDKDKRNQCRYCRLKKC [C6F] | 2.89
RFSRQGVVDKDKRNQCRYCRLKKC [C6G] | 2.87
RFSRQHVVDKDKRNQCRYCRLKKC [C6H] | 2.77
RFSRQIVVDKDKRNQCRYCRLKKC [C6I] | 2.33
RFSRQKVVDKDKRNQCRYCRLKKC [C6K] | 3.17
RFSRQLVVDKDKRNQCRYCRLKKC [C6L] | 1.99
RFSRQMVVDKDKRNQCRYCRLKKC [C6M] | 2
RFSRQNVVDKDKRNQCRYCRLKKC [C6N] | 2.86
RFSRQPVVDKDKRNQCRYCRLKKC [C6P] | 2.72
RFSRQQVVDKDKRNQCRYCRLKKC [C6Q] | 3.36
RFSRQRVVDKDKRNQCRYCRLKKC [C6R] | 2.6
RFSRQSVVDKDKRNQCRYCRLKKC [C6S] | 2.72
RFSRQTVVDKDKRNQCRYCRLKKC [C6T] | 2.29
RFSRQVVVDKDKRNQCRYCRLKKC [C6V] | 2.62
RFSRQWVVDKDKRNQCRYCRLKKC [C6W] | 1.29
RFSRQYVVDKDKRNQCRYCRLKKC [C6Y] | 2.32
RFSRQCAVDKDKRNQCRYCRLKKC [V7A] | 2.4
RFSRQCCVDKDKRNQCRYCRLKKC [V7C] | 2.62
RFSRQCDVDKDKRNQCRYCRLKKC [V7D] | 4.05
RFSRQCEVDKDKRNQCRYCRLKKC [V7E] | 2.05
RFSRQCFVDKDKRNQCRYCRLKKC [V7F] | 1.94
RFSRQCGVDKDKRNQCRYCRLKKC [V7G] | 2.37
RFSRQCHVDKDKRNQCRYCRLKKC [V7H] | 2.38

Variant | protein stability index
RFSRQCIVDKDKRNQCRYCRLKKC [V7I] | 2.13
RFSRQCKVDKDKRNQCRYCRLKKC [V7K] | 2.6
RFSRQCLVDKDKRNQCRYCRLKKC [V7L] | 2.48
RFSRQCMVDKDKRNQCRYCRLKKC [V7M] | 2.41
RFSRQCNVDKDKRNQCRYCRLKKC [V7N] | 2.21
RFSRQCPVDKDKRNQCRYCRLKKC [V7P] | 2.96
RFSRQCQVDKDKRNQCRYCRLKKC [V7Q] | 2.05
RFSRQCRVDKDKRNQCRYCRLKKC [V7R] | 2.4
RFSRQCSVDKDKRNQCRYCRLKKC [V7S] | 2.1
RFSRQCTVDKDKRNQCRYCRLKKC [V7T] | 2.73
RFSRQCWVDKDKRNQCRYCRLKKC [V7W] | 2.47
RFSRQCYVDKDKRNQCRYCRLKKC [V7Y] | 2.93
RFSRQCVADKDKRNQCRYCRLKKC [V8A] | 2
RFSRQCVCDKDKRNQCRYCRLKKC [V8C] | 3.21
RFSRQCVDDKDKRNQCRYCRLKKC [V8D] | 2.8
RFSRQCVEDKDKRNQCRYCRLKKC [V8E] | 2.19
RFSRQCVFDKDKRNQCRYCRLKKC [V8F] | 2.38
RFSRQCVHDKDKRNQCRYCRLKKC [V8H] | 3.87
RFSRQCVIDKDKRNQCRYCRLKKC [V8I] | 2.9
RFSRQCVKDKDKRNQCRYCRLKKC [V8K] | 2.86
RFSRQCVMDKDKRNQCRYCRLKKC [V8M] | 2.56
RFSRQCVNDKDKRNQCRYCRLKKC [V8N] | 1.86
RFSRQCVPDKDKRNQCRYCRLKKC [V8P] | 2.38
RFSRQCVQDKDKRNQCRYCRLKKC [V8Q] | 2.66

Variant | protein stability index
RFSRQCVRDKDKRNQCRYCRLKKC [V8R] | 3.24
RFSRQCVSDKDKRNQCRYCRLKKC [V8S] | 2.48
RFSRQCVTDKDKRNQCRYCRLKKC [V8T] | 2.6
RFSRQCVWDKDKRNQCRYCRLKKC [V8W] | 2.4
RFSRQCVYDKDKRNQCRYCRLKKC [V8Y] | 2.98
RFSRQCVVAKDKRNQCRYCRLKKC [D9A] | 2.07
RFSRQCVVCKDKRNQCRYCRLKKC [D9C] | 2.69
RFSRQCVVEKDKRNQCRYCRLKKC [D9E] | 2.52
RFSRQCVVFKDKRNQCRYCRLKKC [D9F] | 2.13
RFSRQCVVGKDKRNQCRYCRLKKC [D9G] | 3.04
RFSRQCVVHKDKRNQCRYCRLKKC [D9H] | 3.9
RFSRQCVVIKDKRNQCRYCRLKKC [D9I] | 2.12
RFSRQCVVKKDKRNQCRYCRLKKC [D9K] | 2.13
RFSRQCVVLKDKRNQCRYCRLKKC [D9L] | 1.92
RFSRQCVVMKDKRNQCRYCRLKKC [D9M] | 3.42
RFSRQCVVNKDKRNQCRYCRLKKC [D9N] | 2.67
RFSRQCVVPKDKRNQCRYCRLKKC [D9P] | 2.48
RFSRQCVVQKDKRNQCRYCRLKKC [D9Q] | 2.78
RFSRQCVVRKDKRNQCRYCRLKKC [D9R] | 3.01
RFSRQCVVSKDKRNQCRYCRLKKC [D9S] | 2.92
RFSRQCVVTKDKRNQCRYCRLKKC [D9T] | 2.27
RFSRQCVVVKDKRNQCRYCRLKKC [D9V] | 2.33
RFSRQCVVWKDKRNQCRYCRLKKC [D9W] | 1.68
RFSRQCVVYKDKRNQCRYCRLKKC [D9Y] | 2.33

Variant | protein stability index
RFSRQCVVDADKRNQCRYCRLKKC [K10A] | 1.7
RFSRQCVVDCDKRNQCRYCRLKKC [K10C] | 2.25
RFSRQCVVDDDKRNQCRYCRLKKC [K10D] | 2.49
RFSRQCVVDEDKRNQCRYCRLKKC [K10E] | 2.14
RFSRQCVVDFDKRNQCRYCRLKKC [K10F] | 1.98
RFSRQCVVDGDKRNQCRYCRLKKC [K10G] | 2.55
RFSRQCVVDHDKRNQCRYCRLKKC [K10H] | 2.79
RFSRQCVVDIDKRNQCRYCRLKKC [K10I] | 1.75
RFSRQCVVDLDKRNQCRYCRLKKC [K10L] | 2.37
RFSRQCVVDMDKRNQCRYCRLKKC [K10M] | 2.9
RFSRQCVVDNDKRNQCRYCRLKKC [K10N] | 2.43
RFSRQCVVDPDKRNQCRYCRLKKC [K10P] | 2.8
RFSRQCVVDQDKRNQCRYCRLKKC [K10Q] | 2.95
RFSRQCVVDRDKRNQCRYCRLKKC [K10R] | 2.78
RFSRQCVVDSDKRNQCRYCRLKKC [K10S] | 2.02
RFSRQCVVDTDKRNQCRYCRLKKC [K10T] | 2.41
RFSRQCVVDVDKRNQCRYCRLKKC [K10V] | 2.47
RFSRQCVVDWDKRNQCRYCRLKKC [K10W] | 2.59
RFSRQCVVDYDKRNQCRYCRLKKC [K10Y] | 2.82
RFSRQCVVDKAKRNQCRYCRLKKC [D11A] | 2.28
RFSRQCVVDKCKRNQCRYCRLKKC [D11C] | 3.51
RFSRQCVVDKEKRNQCRYCRLKKC [D11E] | 2.19
